Biological target: enzymatically [3H] acetylated histone H3 peptide (amino acids 1-24), P68431

B1: human SIRT1 with a C-terminal FLAG tag (protein)
chain: MADEAALALQPGGSPSAAGADREAASSPAGEPLRKRPRRDGPGLERSPGEPGGAAPEREVPAAARGCPGAAAAALWREAEAEAAAAGGEQEAQATAAAGEGDNGPGLQGPSREPPLADNLYDEDDDDEGEEEEEAAAAAIGYRDNLLFGDEIITNGFHSCESDEEDRASHASSSDWTPRPRIGPYTFVQQHLMIGTDPRTILKDLLPETIPPPELDDMTLWQIVINILSEPPKRKKRKDINTIEDAVKLLQECKKIIVLTGAGVSVSCGIPDFRSRDGIYARLAVDFPDLPDPQAMFDIEYFRKDPRPFFKFAKEIYPGQFQPSLCHKFIALSDKEGKLLRNYTQNIDTLEQVAGIQRIIQCHGSFATASCLICKYKVDCEAVRGDIFNQVVPRCPRCPADEPLAIMKPEIVFFGENLPEQFHRAMKYDKDEVDLLIVIGSSLKVRPVALIPSSIPHEVPQILINREPLPHLHFDVELLGDCDVIINELCHRLGGEYAKLCCNPVKLSEITEKPPRTQKELAYLSELPPTPLHVSEDSSSPERTSPPDSSVIVTLLDQAAKSNDDLDVSESKGCMEEKPQEVQTSRNVESIAEQMENPDLKNVGSSTGEKNERTSVAGTVRKCWPNRVAKEQISRRLDGNQYLFLPPNRYIFHGAEVYSDSEDDVLSSSSCGSNSDSGTCQSPSLEEPMEDESEIEEFYNGLEDEPDVPERAGGAGFGTDGDDQEAINEAISVKQEVTDMNYPSNKS
  standard histone deacetylase assay (radioactive, H3 peptide substrate): These enzymes also deacetylate histones as determined in a standard histone deacetylase assay
